B1: receiving peptide MK(LKKIKSV)4VGER (peptide)
peptide: MKLKKIKSVLKKIKSVLKKIKSVLKKIKSVVGER
notes: With the docking peptide it is said to form a tetramer of two peptides of each type; also called V/K peptide

Experiments:
[1] = biological target: the molecule itself; assay: circular dichroism spectra, 200-260 nm
[2] = biological target: B1; assay: isothermal titration calorimetry (FIG. 2C); ITC, docking peptide with receiving peptide (FIG. 2C)

| Binder | binding result [1] | Kd [2] [nM] |
| --- | --- | --- |
| B1 | no binding (tested: 100 µM) | – |
| MKLEEIVSELEEIVSELEEIVTELEEIVSEVGER (also called V/E peptide) [docking peptide MK(LEEIVSE)2LEEIVTELEEIVSEVGER] | no binding (tested: 100 µM) | 62 |

Reference: patent US20190381186A1 (TRUSTEES OF BOSTON UNIVERSITY, published 2019)
